Reference: patent US10568344B2, “Methods of improving animal performance” (Novozymes A/S, priority 2015, dated 2020)
Like-named read-outs stand apart in the source and are kept apart here.

How the values were obtained:
[1] = In vivo broiler trial 4, FCR and EPEF; design: species or system male broiler type chickens (Cobb 500); conditions: 50 mg/kg in Grower feed (Days 8-24)
Protocol: Diet composition was designed to meet or exceed the requirements except for metabolisable energy, phosphorus and calcium (tables 15 and 16). […] During the Grower period, the lysozyme (SEQ ID NO: 1) was applied at […] as a liquid formulation (table 14). There were no other enzymes or any coccidiostats supplemented in the diets. The diets were prepared at a […] specialised in experimental diets and the mash feed was offered ad libitum to the birds. At the day of hatching, male day-old broiler type chickens (male byproducts of female parental line of Cobb 500) were obtained from Cobb Germany […] GmbH, […] (Brö[…] birds were randomly assigned in groups of 22 chickens to the experimental pens ( 3 sq·m.) equipped with a bell drinker and a round feeder. After 7 days of equal rearing, number of birds per pen was reduced to 20, selecting against obviously light birds. Recorded body weights (BW) were immediately statistically evaluated. In order to ensure similar average BW between treatments and variation within treatments statistical evaluation of BW-placement of chicks was coordinated in such a way as to minimize within-pen variation and between-treatment differences of average BW. Feed and water were freely available, feed consumption was recorded. Initial bedding consisted of wood shavings. Caked excreta patches around the drinkers were removed several times during the experimental period and more bedding material was added when required. Light and temperature regimes were managed according to the breeder's recommendations. Birds were weighed (groupwise) at placement and at the end of each fattening period. At the final weighing, birds were weighed individually. Feed offered was recorded continuously upon refilling the feeders; the feed remaining in the feeders was recorded at the end of each fattening period. […] Daily BW gain per bird (BW gain) and feed conversion ratio (FCR) were calculated as follows: BWgain: difference between BW per bird at the end and at the beginning of the study divided by the number of days FCR: total feed consumption of a pen divided by total BW gain of that pen (total BW gain=total BW at the end+weight of removals and losses-total BW at the beginning) The European Production Efficacy Factor (EEF) was calculated as follows: EEF=[(liveability,%×BWgain,kg)/(Study duration in days×FCR)]×100. Statistical Analysis Data of performance was analysed using a bi-factorial ANOVA (procedure PROC GLM) with the fixed effects of lysozyme supplementation as well as their interaction. Differences were investigated between the various levels of each main factor (Tukey test), accounting for multiple comparisons where appropriate.

[2] = test system: Exiguobacterium undae (DSM14481); assay: Lysozyme activity turbidity assay (optical density drop); format: biochemical; conditions: pH 5
[3] = test system: Clostridium perfringens DSM756; format: cell-based; conditions: for Diameter of zone of incomplete inhibition of growth visible after MTT coloring: 100 μg/ml; for Diameter of clearing zone: lysozymes 100 μg/ml, bacitracin 50 μg/ml
Bacteroidales = assay: Microbiota analysis of broiler trial 4 (16S rRNA), Bacteroidales; format: in vivo, chicken; design: key to Observed shift compared to the control group, Significance: Significant change (+++), padj < 0.05; Numerical change (+); conditions: 50 ppm
[4] = test system: Micrococcus lysodeikticus ATTC No. 4698; assay: Lysozyme activity turbidity assay (optical density drop); conditions: pH 4

B1: SEQ ID NO: 1: mature amino acid sequence of a wild type GH25 lysozyme from Acremonium alcalophilum with N-terminal SPIRR (protein)
chain: SPIRRRIPGFDISGWQPTTDFARAYANGDRFVYIKATEGTTFKSSAFSRQYTGATQNGFIRGAYHFAQPAASSGAAQARYFASNGGGWSKDGITLPGALDIEYNPNGATCYGLSQSAMVNWIEDFVTTYHGITSRWPVIYTTTDWWTQCTGNSNRFANRCPLWIARYASSVGTLPNGWGFYTFWQYNDKYPQGGDSNWFNGDASRLRALANGD
modifications: Wild type sequence with N-terminal SPIRR
[1]
  EPEF: 327
  FCR: 1.56
[1]; vs no lysozyme
  EPEF % improvement: 3.8%
  EPEF change: 12
  FCR % improvement: 1.9%
  FCR change: 0.03
[2]
  Lysozyme activity as measured by Optical Density Drop: + (pH 5)
[3]; 1/10 MHB, pH7, both experiments
  Inhibition zone: 11-13 mm
[3]; Experiment 1, 1/2 MHB pH 6
  Diameter of zone of incomplete inhibition of growth visible after MTT coloring: 20 mm
  Diameter of clearing zone: 6 mm
[3]; Experiment 1, 1/10 MHB pH 7
  Diameter of clearing zone: 13 mm
[3]; Experiment 2, 1/2 MHB pH 6
  Diameter of zone of incomplete inhibition of growth visible after MTT coloring: 19 mm
  Diameter of clearing zone: 4 mm
[3]; Experiment 2, 1/10 MHB pH 7
  Diameter of clearing zone: 11 mm
[3]; ½ MHB, pH 6, after coloring with MTT
  Larger incomplete clearing zone: 19-20 mm
[3]; ½ MHB, pH 6, both experiments
  Clearing zone diameter: 4-6 mm
Bacteroidales; Order level (Bacteroidales)
  Observed shift compared to the control group, Significance: +
Bacteroidales; order level
  Bacteroidales Change vs control: −15.8551
  Bacteroidales Ratio vs control: 0.7538
Bacteroidales; order level, ceca content
  Bacteroidales abundance, Lysozyme treatment: 48.5437
[4]
  Lysozyme activity as measured by Optical Density Drop: + (pH 4)
